For one test, the target named is T1, Rat c-Met-Flis-Fc ECD (rat).
T1 construct: also called Rat cMet-ECD-Fc-Flis; rat c-Met ECD
The test is described as follows: SPR (Biacore), antibody captured. The protocol: A Biacore® 2000 instrument is used to measure the binding kinetics of c-Met antibodies to human, cynomolgus monkey, and rat c-Met ECDs. Measurements are performed at 25° C. Samples are dissolved in HBS-EP buffer (150 mM sodium chloride, 3 mM EDTA, 0.005% (w/v) surfactant P-20, and 10 mM N-2-hydroxyethylpiperazine-N′-2-ethanesulfonic acid (HEPES) at pH 7.4; #BR-1001-88).
Binding is evaluated using multiple cycles. Each cycle is performed at a flow rate of 50 μL/min., and consists of the following steps: injection of about 10 μL of a c-Met antibody at 10 μg/mL aiming at a capture of 40-100 RUs, injection of 250 μL of human, cynomolgus, or rat c-Met-Flis-Fc ECD (starting at 100 nM and using two-fold serial dilutions for each cycle) followed by 20 min. for dissociation, and regeneration using about 30 μL of 10 mM glycine hydrochloride, pH 1.5. Association and dissociation rates for each cycle are evaluated using a “1:1 (Langmuir) binding” model in the BIAevaluation software, version 4.1.
A general note: Surface plasmon resonance follows binding to a sensor surface in real time, without labels.

The next test deals with T2, PlexinA2-ECD-Fc (human, UniProt O75051 35-1237).
T2 construct: extracellular domain; Bought reagent
T2 sequence (looked up): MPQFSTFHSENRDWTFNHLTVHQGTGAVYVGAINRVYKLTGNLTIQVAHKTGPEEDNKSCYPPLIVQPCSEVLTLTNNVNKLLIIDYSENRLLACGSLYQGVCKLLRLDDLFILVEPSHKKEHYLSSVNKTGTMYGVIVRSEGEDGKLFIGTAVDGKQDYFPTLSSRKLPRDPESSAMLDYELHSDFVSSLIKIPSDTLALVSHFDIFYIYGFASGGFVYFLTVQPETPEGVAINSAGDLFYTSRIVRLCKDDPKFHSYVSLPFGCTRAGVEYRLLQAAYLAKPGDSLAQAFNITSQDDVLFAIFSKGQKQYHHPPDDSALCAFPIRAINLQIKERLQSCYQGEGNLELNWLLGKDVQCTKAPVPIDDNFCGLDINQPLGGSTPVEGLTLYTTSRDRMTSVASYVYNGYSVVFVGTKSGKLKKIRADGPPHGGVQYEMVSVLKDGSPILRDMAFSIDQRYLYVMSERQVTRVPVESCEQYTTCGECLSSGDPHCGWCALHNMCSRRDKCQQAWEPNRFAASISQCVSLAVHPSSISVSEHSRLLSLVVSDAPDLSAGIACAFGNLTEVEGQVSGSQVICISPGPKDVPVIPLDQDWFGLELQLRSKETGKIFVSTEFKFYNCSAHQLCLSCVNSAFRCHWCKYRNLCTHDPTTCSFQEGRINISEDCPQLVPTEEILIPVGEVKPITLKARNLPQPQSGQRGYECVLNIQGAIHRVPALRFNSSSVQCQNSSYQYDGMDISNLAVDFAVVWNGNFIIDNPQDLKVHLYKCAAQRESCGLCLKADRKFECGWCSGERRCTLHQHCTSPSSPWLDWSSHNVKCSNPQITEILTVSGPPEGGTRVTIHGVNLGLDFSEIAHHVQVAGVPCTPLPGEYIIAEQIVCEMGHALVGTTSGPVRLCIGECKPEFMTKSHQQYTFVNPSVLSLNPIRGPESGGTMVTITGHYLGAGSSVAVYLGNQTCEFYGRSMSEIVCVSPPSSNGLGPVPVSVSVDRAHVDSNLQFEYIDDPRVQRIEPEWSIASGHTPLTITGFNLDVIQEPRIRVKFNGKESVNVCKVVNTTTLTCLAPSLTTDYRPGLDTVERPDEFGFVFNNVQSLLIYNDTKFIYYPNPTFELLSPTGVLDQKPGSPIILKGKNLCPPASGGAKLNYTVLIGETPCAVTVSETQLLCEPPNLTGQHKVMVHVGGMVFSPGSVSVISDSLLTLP
The test can be described thus: ELISA, coated ECD-Fc, antibody 462.963 ng/mL. The procedure:
Wells of 96-well EIA/RIA high binding plates (Costar, #2592) are coated with 100 μL of 1 μg/mL human c-Met extracellular domain (ECD)-Fc-Flis fusion (SEQ ID NO:72), RON-ECD-Fc (R&D Systems, #1947-MS), or PlexinA2-ECD-Fc (Abnova, Taipei, Taiwan #H00005362-P01) in coating buffer (BioFX Labs, # COAT-1000-01) overnight at 4° C. […] After the plates are washed, 100 μL/well of substrate solution (BioFx, #TMBW-1000-01) are added and the plates are incubated for 10 min. at room temperature. 100 μL/well of stop solution (BioFx, # LSTP-1000-01) are added to stop the reaction. The colorimetric signals are developed and read at 450 nm using a SpectraMax 190 plate reader (Molecular Devices, Sunnyvale, Calif.). c-Met antibody binding to c-Met, RON and PlexinA2 ECDs is proportional to color signal production.
(ELISA stands for enzyme-linked immunosorbent assay.)

T1 sequence (chain, as listed by the source limits assumed): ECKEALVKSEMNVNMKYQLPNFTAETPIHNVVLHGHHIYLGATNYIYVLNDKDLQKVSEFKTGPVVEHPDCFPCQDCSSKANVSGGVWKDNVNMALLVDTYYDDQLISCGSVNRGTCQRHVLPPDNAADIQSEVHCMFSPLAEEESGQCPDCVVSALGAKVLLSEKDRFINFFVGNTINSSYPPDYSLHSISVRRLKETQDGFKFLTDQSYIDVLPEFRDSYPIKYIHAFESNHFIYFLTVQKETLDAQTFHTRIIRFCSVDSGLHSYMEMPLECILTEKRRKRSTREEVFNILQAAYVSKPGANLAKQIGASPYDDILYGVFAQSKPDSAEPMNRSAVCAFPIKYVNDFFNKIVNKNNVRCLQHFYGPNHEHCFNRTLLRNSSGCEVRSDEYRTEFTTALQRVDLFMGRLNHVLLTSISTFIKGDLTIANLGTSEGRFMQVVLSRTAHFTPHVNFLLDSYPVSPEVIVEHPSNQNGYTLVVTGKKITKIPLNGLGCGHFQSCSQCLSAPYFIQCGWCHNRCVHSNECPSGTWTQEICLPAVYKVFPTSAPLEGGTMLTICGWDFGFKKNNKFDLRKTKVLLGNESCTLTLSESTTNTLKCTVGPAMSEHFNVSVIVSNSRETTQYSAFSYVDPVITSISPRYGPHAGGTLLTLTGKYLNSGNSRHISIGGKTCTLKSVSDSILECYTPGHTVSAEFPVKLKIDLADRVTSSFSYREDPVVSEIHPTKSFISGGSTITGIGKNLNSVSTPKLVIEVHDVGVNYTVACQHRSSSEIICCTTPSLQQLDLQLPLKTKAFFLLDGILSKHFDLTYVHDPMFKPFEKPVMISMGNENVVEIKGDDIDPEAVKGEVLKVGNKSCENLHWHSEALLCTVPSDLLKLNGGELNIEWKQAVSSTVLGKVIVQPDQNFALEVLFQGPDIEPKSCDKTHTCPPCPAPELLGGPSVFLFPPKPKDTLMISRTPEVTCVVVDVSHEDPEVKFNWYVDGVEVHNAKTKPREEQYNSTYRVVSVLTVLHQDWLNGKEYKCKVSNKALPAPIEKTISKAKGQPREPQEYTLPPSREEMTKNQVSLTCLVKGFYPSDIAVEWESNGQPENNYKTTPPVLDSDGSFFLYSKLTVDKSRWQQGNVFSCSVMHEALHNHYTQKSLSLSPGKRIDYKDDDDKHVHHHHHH

B1: C8-6 (antibody, human IgG2, kappa, V domains shown)
VH: QVQLVQSGAEVKKPGASVKVSCKASGYTFTDYYMHWVRQAPGQGLEWMGRVNPNRGGTTYNQKFEGRVTMTTDTSTSTAYMELRSLRSDDTAVYYCARTNWLDYWGQGTTVTVSS
VL: DIQMTQSPSSLSASVGDRVTITCSVSSSVSSIYLHWYQQKPGKAPKLLIYSTSNLASGVPSRFSGSGSGTDFTLTISSLQPEDFATYYCIQYSGYPLTFGGGTKVEIKR
notes: Called IgG4, kappa; also called Mab C8-6
As for B1, the binding result in the test with Rat c-Met-Flis-Fc ECD was “no binding”. In addition, in the test with PlexinA2-ECD-Fc, the “Average A450 nm” value was determined as 0.086 A450 nm.

The record behind these values is patent US20100129369A1 (Eli Lilly, published 2010).
